Article doi:10.1101/2023.03.12.532276 (bioRxiv, 2023)

Biological target: the molecule itself
Assay: SAXS with online size exclusion

B1: ELF3 PrLD Q7 (prion-like domain of EARLY FLOWERING 3, residues 388-625, 7 glutamines, ecotype Columbia) (domain or fragment)
chain: LLPSEFLVKPPLPHVVVKQRGDSEKTDQHKMESSAENVVGRLSNQGHHQQSNYMPFANNPPASPAPNGYCFPPQPPPSGNHQQWLIPVMSPSEGLIYKPHPGMAHTGHYGGYYGHYMPTPMVMPQYHPGMGFPPPGNGYFPPYGMMPTIMNPYCSSQQQQQQQPNEQMNQFGHPGNLQNTQQQQQRSDNEPAPQQQQQPTKSYPRARKSRQGSTGSSPSGPQGISGSKSFRPFAAVDE
binding result: binds
